According to patent US9340577B2, “HLA binding motifs and peptides and their uses” (priority 1992, dated 2016):
No end group written: not given here.

These substances were tested against HLA-A*0201 (HLA-A2.1) (Homo sapiens, UniProt P04439, D140Y/D185E/D98H/E176V/E277Q/G131W/G231S/I119V/I121R/I166T/I218V/L300P/L318F/N151K/N90K/P208A/P217A/Q86G/Q94H/R138H/R169H/T345S) (assay: biochemical).
Assay type: binding

Substance | binding to HLA-A2.1 (column 3; no allele head shown for these rows) | A*0201 | A2.1 | IC50 | A2.1 Binding
DLESEFQAAI | 0 | – | – | – | –
LQLVFGIDV | 0.0004 | – | – | – | –
AMBRWGLLV [Peptide 1334.08] | – | 0.1400 | – | – | –
VIFSKASSSL | – | – | 0 | – | –
VMVTCLGLSV | 0.30 | – | – | – | –
SLSAYIIRV [Peptide 1577.43] | – | – | – | 40 nM | –
IJIGVLVGV [Peptide 1345.01] | – | 0.0570 | – | – | –
KTGLLIIVLA | <0.0002 | – | – | – | –
SJPPPGTRV [Peptide 1345.03] | – | 0.0545 | – | – | –
ILESLFRAVI | – | – | 0.0002 | – | –
BLTIHYNYV [Peptide 1323.08] | – | 0.0430 | – | – | –
GVQGPSLKPA | – | – | 0.0001 | – | –
AISRKMVELV | – | – | 0 | – | –
GIDVKEADPT | 0 | – | – | – | –
PVTKAEMLESV | 0 | – | – | – | –
DLVQEKYLEYRQV | 0 | – | – | – | –
VPTAGSTDP | – | – | <0.0002 | – | –
CKPEEALEA | – | – | <0.0002 | – | –
SREEEGPST | – | – | <0.0002 | – | –
RCRTVIPHA | – | – | <0.0002 | – | –
QIMPKTGFLI | 0.0009 | – | – | – | –
DLQQSLRVL | – | – | 0 | – | –
EIWEELSVM | 0 | – | – | – | –
LVGFLLLKYRA | 0.0004 | – | – | – | –

Substance | binding to HLA-A2.1 (column 3; no allele head shown for these rows) | A*0201 | A2.1 | IC50 | A2.1 Binding
VQEKYLEYG | – | – | <0.0002 | – | –
YKHCFPEIF | – | – | <0.0002 | – | –
EAQQEALGLV | 0 | – | – | – | –
HAPEEEIWE | – | – | <0.0002 | – | –
VLEYVIKVSA | 0.0002 | – | – | – | –
GLLGDNQI | – | – | 0 | – | –
YLIMVKBWMV [Peptide 1334.05] | – | 0.6900 | – | – | –
SESLQLVFGI | 0 | – | – | – | –
VQAATSSSS | – | – | <0.0002 | – | –
PIGHLYIFA | 0 | – | – | – | –
YMIMVKBWMI [Peptide 1334.04] | – | 0.2700 | – | – | –
BLLAKTBPV [Peptide 1329.15] | – | 0.1100 | – | – | –
DLVQEKYL | – | – | 0 | – | –
ELSVMEVYD | – | – | <0.0002 | – | –
IMPKAGLLII | 0.0015 | – | – | – | –
MLGSVVGNWQYFFPV | 0.012 | – | – | – | –
AVITKKVA | 0 | – | – | – | –
LLIIVLAIIA | <0.0002 | – | – | – | –
RAREPVTKA | 0 | – | – | – | –
QQEALGLVC | – | – | <0.0002 | – | –
AVITKKVAD | – | – | <0.0002 | – | –
CILESLFRAV | – | – | 0.0003 | – | –
QLVFGIDVKEA | 0.0001 | – | – | – | –
GMCCPDLSPV [Peptide 41.0157] | – | 0.0950 | – | – | –

Substance | binding to HLA-A2.1 (column 3; no allele head shown for these rows) | A*0201 | A2.1 | IC50 | A2.1 Binding
IIAIEGDCA | 0 | – | – | – | –
VTKAEMLGSV | <0.0002 | – | – | – | –
FLIIVLVMI | – | – | 0.0005 | – | –
VLGTLEEVPTA | 0.0002 | – | – | – | –
QAALSRKVA | 0 | – | – | – | –
GKASESLQL | – | – | <0.0002 | – | –
PVTKAEML | – | – | 0 | – | –
KAEMLGSVV | 0 | – | – | – | –
QLVFGIDV | – | – | 0 | – | –
CLLAKTCPV [Peptide 1326.01] | – | 0.0400 | – | – | –
PQSPQGASA | – | – | <0.0002 | – | –
BQLAKTBPV [Peptide 1329.14] | – | 0.0490 | – | – | –
LAETSYVKV | 0 | – | – | – | –
MSSCGVQGP | – | – | <0.0002 | – | –
QVMPKTGLL | 0 | – | – | – | –
GLYDGMEHV [Peptide 1586.08] | – | – | – | 155 nM | –
VITKKVADL | – | – | <0.0003 | – | –
VLVTCLGLSYDGL | 0.0017 | – | – | – | –
MIAMEGGHA | 0.0005 | – | – | – | –
KAGLLIIVLA | <0.0002 | – | – | – | –
GLYDGREHTV [Peptide 1586.06] | – | – | – | 144 nM | –
IIVLVMIA | 0.0002 | – | – | – | –
GLSYDGLLV | 0.0047 | – | – | – | –
YLEYGRCRTVI | 0.0006 | – | – | – | –

Substance | binding to HLA-A2.1 (column 3; no allele head shown for these rows) | A*0201 | A2.1 | IC50 | A2.1 Binding
QIMPKAGLL | – | – | 0 | – | –
EVVPISHLYI | <0.0002 | – | – | – | –
11546 (SLLPAIVEL) [Peptide 11546] | – | – | – | – | 0.19
DLVGFLLL | – | – | 0 | – | –
ALEAQQEA | – | – | 0 | – | –
CILESLFRAVI | 0.0030 | – | – | – | –
IIAREGDCA | 0 | – | – | – | –
YLCNSSCMGGV [Peptide 1323.31] | – | 0.2300 | – | – | –
RVRFFFPSL | 0.0001 | – | – | – | –
YMCNSSCMGGM [Peptide 1323.29] | – | 0.0075 | – | – | –
KASESLQLV | 0.0009 | – | – | – | –
VVEVVPISHL | <0.0002 | – | – | – | –
VITKKVADLV | – | – | 0 | – | –
EIWEELSV | 0 | – | – | – | –
SLHCKPEEAL | – | – | 0.0002 | – | –
SLFRAVITKKV | 0.0001 | – | – | – | –
GIEVVEVVPI | <0.0002 | – | – | – | –
QIMPKTGFL | – | – | 0.0007 | – | –
ALEAQQEALGL | 0.0001 | – | – | – | –
AALREEEEGV | 0 | – | – | – | –
QAAISRKMV | 0 | – | – | – | –
DPTGHSYVL | – | – | <0.0002 | – | –
VTCLGLSYD | – | – | <0.0002 | – | –
LVFGIELJEV [Peptide 1345.04] | – | 0.7650 | – | – | –

Substance | binding to HLA-A2.1 (column 3; no allele head shown for these rows) | A*0201 | A2.1 | IC50 | A2.1 Binding
KTGFLIIVL | 0.0006 | – | – | – | –
DLESEFQAA | 0 | – | – | – | –
ATSSSSPLVL | 0 | – | – | – | –
EADPTGHSYV | 0 | – | – | – | –
PKTGFLIIV | – | – | <0.0002 | – | –
LIIVLVMIA | 0 | – | – | – | –
KASEYLQLV | 0.011 | – | – | – | –
CQLAKTCPV [Peptide 1324.07] | – | 0.0240 | – | – | –
SLFRAVITKKVADLV | 0.0004 | – | – | – | –
RAVITKKVA | 0 | – | – | – | –
AVITKKVADL | – | – | 0 | – | –
PLVLGTLEE | – | – | <0.0002 | – | –
AATSSSSPLV | 0 | – | – | – | –
SLRVLAAGL | – | – | 0.0001 | – | –
LLSRDLQQSL | – | – | 0.0007 | – | –
LIIVLVMI | 0.0001 | – | – | – | –
CLGLSYDGLL | – | – | 0 | – | –
EIFGKASESL | – | – | 0 | – | –
FPTTINFTR | – | – | <0.0002 | – | –
ILESLFRAV | – | – | 0.0004 | – | –
VLGTLEEVPT | 0.0004 | – | – | – | –
GLSYDGLL | – | – | 0.0001 | – | –
PTGHSYVLV | 0 | – | – | – | –
YIFATCLGL | – | – | 0.018 | – | –

Substance | binding to HLA-A2.1 (column 3; no allele head shown for these rows) | A*0201 | A2.1 | IC50 | A2.1 Binding
DLESEFQAAISRKMV | 0 | – | – | – | –
ATSSSSPLV | 0.0007 | – | – | – | –
PTGHSYVLVT | 0 | – | – | – | –
PRKLLTQDL | – | – | <0.0002 | – | –
YLEYGRCRT | 0 | – | – | – | –
IMPKTGFL | – | – | 0.0001 | – | –
FLIIVLVM | – | – | 0 | – | –
LVMIAMEGG | – | – | <0.0002 | – | –
STSCILESL | 0.0002 | – | – | – | –
AVITKKVADLV | 0 | – | – | – | –
KLLTQDLV | – | – | 0.0004 | – | –
EALEAQQEA | 0 | – | – | – | –
ALNKMFBQV [Peptide 1323.04] | – | 0.0260 | – | – | –
QRQPSEGSS | – | – | <0.0002 | – | –
GVQGPSLKPAM | 0 | – | – | – | –
ITKKVADLV | 0 | – | – | – | –
EALGLVCVQA | 0.0005 | – | – | – | –
KTGFLIIVLV | 0.0012 | – | – | – | –
EVDPIGHLYI | <0.0002 | – | – | – | –
